B1: EcRE-like 8 probe (Bio-ERRE-8) (dsDNA)
DNA 1: GAGACAGCGTTAGCTGATATTCTAAAT
DNA 2: ATTTAGAATATCAGCTAACGCTGTCTC
B2: EcRE-like 2 probe (Bio-ERRE-2) (dsDNA)
DNA 1: TAAAGAACCTTTATTAAAATTAAAATA
DNA 2: TATTTTAATTTTAATAAAGGTTCTTTA
B3: EcRE-like 1 probe (Bio-ERRE-1) (dsDNA)
DNA 1: ATTAAGTAGCAGTAAACTGTGACCT
DNA 2: AGGTCACAGTTTACTGCTACTTAAT
B4: EcRE-like 3 probe (Bio-ERRE-3) (dsDNA)
DNA 1: GTTCCGAAATAAAATTACCTGATGGTA
DNA 2: TACCATCAGGTAATTTTATTTCGGAAC
B5: EcRE-like 1 mutant probe (Bio-ERRE-1 mut) (dsDNA)
DNA 1: ATTAGACGATGACGGGTCATGACCT
DNA 2: AGGTCATGACCCGTCATCGTCTAAT

This series addresses T1, BmEcR (ecdysone receptor);BmUSP (ultraspiracle) (Bombyx mori;Bombyx mori, UniProt P49881;P49700 1-606;1-462, |).
T1 sequence 1: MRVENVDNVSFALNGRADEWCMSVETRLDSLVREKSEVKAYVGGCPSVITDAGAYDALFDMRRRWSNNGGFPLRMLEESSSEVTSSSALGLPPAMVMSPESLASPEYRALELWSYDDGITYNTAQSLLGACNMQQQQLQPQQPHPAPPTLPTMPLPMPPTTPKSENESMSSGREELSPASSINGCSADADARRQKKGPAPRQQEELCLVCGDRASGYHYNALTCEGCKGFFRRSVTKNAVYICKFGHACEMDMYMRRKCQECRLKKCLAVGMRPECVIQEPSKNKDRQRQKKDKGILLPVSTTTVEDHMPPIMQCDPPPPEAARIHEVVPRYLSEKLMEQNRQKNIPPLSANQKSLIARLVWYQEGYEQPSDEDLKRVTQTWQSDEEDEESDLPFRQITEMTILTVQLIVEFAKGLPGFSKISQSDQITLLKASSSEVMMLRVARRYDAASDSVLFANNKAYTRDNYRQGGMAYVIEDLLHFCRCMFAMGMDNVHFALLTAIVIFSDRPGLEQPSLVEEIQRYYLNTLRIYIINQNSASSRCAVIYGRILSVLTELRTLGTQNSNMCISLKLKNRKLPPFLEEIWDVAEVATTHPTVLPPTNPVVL
T1 sequence 2: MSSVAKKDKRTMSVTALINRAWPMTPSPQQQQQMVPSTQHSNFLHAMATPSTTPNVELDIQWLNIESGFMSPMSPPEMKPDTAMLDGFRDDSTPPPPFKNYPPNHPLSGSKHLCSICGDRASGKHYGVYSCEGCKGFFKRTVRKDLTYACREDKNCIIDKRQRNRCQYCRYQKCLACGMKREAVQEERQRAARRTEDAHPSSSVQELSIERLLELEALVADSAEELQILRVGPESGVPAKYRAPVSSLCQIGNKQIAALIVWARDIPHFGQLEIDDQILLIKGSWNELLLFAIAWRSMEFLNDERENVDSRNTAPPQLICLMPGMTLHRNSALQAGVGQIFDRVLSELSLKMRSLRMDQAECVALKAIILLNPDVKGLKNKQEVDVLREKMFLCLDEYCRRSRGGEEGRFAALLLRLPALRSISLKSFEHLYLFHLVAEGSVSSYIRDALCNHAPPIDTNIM
Nature of the series: EMSA; EMSA: 25 C for 25 min; Beyotime chemiluminescent EMSA kit (binding buffer not stated); 5% native PAGE in Tris-borate-EDTA (45 mM Tris-borate, 1 mM EDTA, pH 8.3); probe 5 uM, BmEcR 0.3 ug/uL, BmUSP 0.45 ug/uL. The settings on record: protein: recombinant;recombinant; tags: ;; copies: 1;1; label: 3'-biotin; blunt. (In general: In EMSA bound probe runs differently from free probe, usually more slowly.)
Consider B1, for which the binding result is reported as “no binding”.
With B2 the entry was “no binding”; with B3, “binds”.
With B4 the entry was “no binding”.
With B5 the entry was “no binding”.

The values are drawn from article PMC8804299, “The Response of the Estrogen-Related Receptor to 20-Hydroxyecdysone in Bombyx mori: Insight Into the Function of Estrogen-Related Receptor in Insect 20-Hydroxyecdysone Signaling Pathway”.
